Reference: the NTF2 design screens of Basanta et al. (2020)

Experiment: protease stability score; higher = more stable; yeast display proteolysis, trypsin and chymotrypsin;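 further: relative to predicted unfolded state with 0 unfolded-like and 1 meaning tenfold more protease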
For “KELERDSREATHTFLRDIKTGDFESLHRLADPTTRMHIGDKEFHGWELLIHVIAEFLRKVPNMRTTLRDERVQGEKVEVRVDIHYNGQDRHIELEIHKVNGKWWIKVMEFE”, the protease stability score was 0.88. In the case of “SEEQENAERILRMWIHALETGDEHTQKRLLDPNVRDEVNGVEFHGRERAVKLMNDLHEELRIKDWIPRDIHLVNGVLILHVEVRLEVDGQSRNHEVIIVIKKVNGRWFIHRIHVR”, the protease stability score is reported as 1.45. In the case of “DEEDKEAHEMVNDALQDFLTGDEDSLRNLVDPNARFEAENHHLIGMETVEWHIREFKNVTIEVKRVDVEVQGDKAILRMNIDIRVNGKTIDEHWEVHVRKFNGQWIITIVKVEFR”, the protease stability score is reported as 2.17. Sequence “HDEDEESRNAVEEYWRVLHTGDEKRWHELADPNVRNEIDGRTYHGRESFRFLFHLHEEKFKNVKIELHSVNIQGDKIKMLIEIKYGDKNIHMIIIAQKIDGKWKNERIHVFHH” has a protease stability score of 0.744. Sequence “DEDEELMRRVVEIYIRALHTGDEDWMTHLADPHVKVDLLIDGRETELHGREWVVEIARKLGVKHSEVKDVHLVGDYIVIHLHLRIGDKEEEQDLIFLKVDGKWTLESSTIRRI” has a protease stability score of 1.53. “TESEKMALIAIEIIFHDLLTGNEESLIKLADPDVQLHYGDKTFHGREEFHKLYSEIIKRYDHIEVLIRDIRVQGDKMHVKEELNLVINGKTVHLESNRTSLKYNGRWHLKSVHLH” gave a protease stability score of 1.26. With “DEIEHLIRRIMEEIVHVFETGDEEKLEELMDPNTIFIIGDKRYVGREAVDVLLRRADVMTRFHIKSMRTVGDKIDLNTSIHVHFDGVHREIDTHVIARKVDGRWHWDSVRVE” the protease stability score was 1.2. With “DEEHKIIRDFADEFWHWHLTGNFEEIAKNMDPNVRYEIRIGDKVILHIGMEDVERYLREEIHKFKNLTEDLESKHVVGNKLHLDARLNWNGKTVDIHIEIVVVNGRFKTVTIHIR” the protease stability score was 1.36. Sequence “DEEEELSKIAIRIFLKTLETGDERTLSELMDPHARLVINGREYHGREEASKEWHKWVEHLRVRDIKISSVRINEHELILHEKFEVEVNGRNLKLDVLIIVVKVDGRWVLRTNTIN” has a protease stability score of 2.68. In the case of “DEEEERVRRIMKEFIESLLTGDFRILTELMDPNARLHVDGVELHGRETMRKFWKDRERELGVENFDAKQRDVRLINGKAHNDGELLINGQVTKWILRVEKVDGRWRLHHIELH”, the protease stability score is reported as 0.231. For “HEDQERLKRFLEFYVHLINTGDEDRIRDLIDPHARVDIDGRIYHGREMYTQAYRDLGIDYLEIKRWEIQGDKVHLDTRVHIDGVERQTHLIIMKFNGRWIVHTMEVQ”, the protease stability score was 1.56. “DHQEEEAKEFTELLMRNLFTGDEDSLQEMLDPHVRIEVDIGDKHRHHHGREEISHFLVRLQHELGVDHIRLSHIEVFNGRAEVHIESYIGNKRSENVFVVTKFNGVWRVQRIIIRVE” showed a protease stability score of 1.2. In the case of “DEEEETARRLTEELIRSQKTGDWEFLLRLMDPHAKSDINGVHVVGMEETVRILEKLLRDLGVTKVEALLHRVHFIDGRVHVDSEERYGDKWFRVHFTVQKINGKWVIRSIEVR”, the protease stability score is reported as 1.4. With “DETTELVHRLIELFLNSLHTGDEKTMVKLADPHARVEVRINGRKEEYHGMEHWSEHLIRRLEHLRIEIRIHDMQWFEGHAQVHTELIVRYDGKEMRTSVQVHLFIVNGRFKSSIVIIH” the protease stability score was 1.05. With “SEEDEVTEKLVRLMIHAHHTGDEDLLKTLADPNVRLTIDYNGVKLTSHGREEFVRLLREWKRQIRIEDRKTTESHVYGNFAINNHVELGEFDGRRDRFEVRLHFVVFNGRVKEEKIKFD” the protease stability score was 1.45. Work on “HEEEERLKEVLELVVESFRTGDFNYLKNLIDPNVRVTVGDKDVHGRDFFVRIMSEMRVTHYEFRHVERFNGQAHIDGELDIRIGDKRERHEIKIITLKINGKWYMETLIIQ” yielded a protease stability score of 1.18. With “DEDENIARHAMELYFKLFETGDFNTLSHLLDPNVRSNINGQTLHGRELMLKQFLDLWEHMGVDHIELKDSREHLVNGRVHRHFHGHLHVNGQTYEVHVRFIMVKVNGRWRHTSESISIR” the protease stability score was 1.1. In the case of “DEDEKRWFDRADEVRRQWETGDFERHLRLMDPHVRMEVQQGDKHEEYHGRENVMEIIRQELERVKNVKLEVTDLEIQGEKVILRLKLHVNGRDIDIYIDIVFINGRIKHIRIRIQER”, the protease stability score is reported as 1.38. With “SELKESATDIMRIYIEAWLTGDFEEITRLADPRMRVINDFNGRTQVNHGRELFRETLKHWRIKHVHIDDMRSFEGRSESHGTVHGQFNGVEDEVRFEVRMVVVDGVLHSMTIIFK” the protease stability score was 1.18. “DEEHEWAQLVIQLFFEALHTGDEKTLHELMDPEVKVNVDGRELHGREEVMEWFEELIRQYKNAKIHLHIHRVEYVGNKVIIRGELHFRYGDKEERIDRILHVLKVDGRWLIREIEHR” gave a protease stability score of 1.51. “SEDEKFWEDISKIVLDLLRTGDWELSERYADPNVKVHLVIDGQELDLHGREHVVNLVRKLGADHVETEDHKFHYQGNKIRINIHGHLNINGKVQHVEFTEIWVKVDGRWYSQHHEIVFR” showed a protease stability score of 1.55. With “DEDREHVKWMIEKEIHAWRTGDEDELRKMLDPNVKFEQGDKRIHGREILMERMRKLGADHVEFQLHDIELQGEKVLLFIELRIHVNGRDIRLEIIIYLDKVNGQWHVRHYEIR” the protease stability score was 0.745. Sequence “SEEEEFVEVAIKIVQEIRKTGDEDEQERLADPHVRFDINGQDIHGREKWTKWVHEIRVRMKHVRERHITVINGKAHIHGEVDVHFHVNGVELRIDTKYTVVIEKVNGRWRLREVHLV” has a protease stability score of 2.22. Sequence “SENEETAEDVIELVIEAWVTGDEDLFLSLLDPRVRLEVNGVHHHGRERVLEEIIKNLETLGVDHIEIRIREIKLIGEWVEIHGELIYRYNGVHERRDVEIIAFKFNGRWVLRSLRVR” has a protease stability score of 1.82. “DEDHEHLERHTRLFLERWRTGDEETLLKLFDPHARSEYGDKHHVGREEVTKLMVIILEKVKGLTIRRLRIKHIEYVDGRAHMDMEVTSEIDGQEVIESVHILMTKVDGRWRIQRVILV” showed a protease stability score of 0.927.
